The data set addresses T1, heat shock factor (HSF) (UniProt P22813 P22813:1-691).
T1 sequence: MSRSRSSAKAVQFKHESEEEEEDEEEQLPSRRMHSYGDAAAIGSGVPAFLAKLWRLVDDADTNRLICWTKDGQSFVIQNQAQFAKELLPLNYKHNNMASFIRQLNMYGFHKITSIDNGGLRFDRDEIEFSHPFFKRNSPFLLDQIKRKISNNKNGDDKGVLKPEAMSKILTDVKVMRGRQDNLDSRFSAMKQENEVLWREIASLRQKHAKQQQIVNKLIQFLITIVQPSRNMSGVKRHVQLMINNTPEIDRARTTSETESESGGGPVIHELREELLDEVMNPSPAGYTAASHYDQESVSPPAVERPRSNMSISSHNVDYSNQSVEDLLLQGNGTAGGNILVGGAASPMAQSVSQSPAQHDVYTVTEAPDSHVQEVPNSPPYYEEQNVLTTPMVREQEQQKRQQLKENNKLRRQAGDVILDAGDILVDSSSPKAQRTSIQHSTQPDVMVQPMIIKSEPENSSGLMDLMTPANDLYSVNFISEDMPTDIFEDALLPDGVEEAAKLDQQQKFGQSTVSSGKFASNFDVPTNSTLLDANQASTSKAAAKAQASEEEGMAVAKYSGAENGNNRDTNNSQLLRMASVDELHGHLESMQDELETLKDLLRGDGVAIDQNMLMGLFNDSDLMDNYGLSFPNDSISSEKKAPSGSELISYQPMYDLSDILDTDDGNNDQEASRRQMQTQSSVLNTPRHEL
As to the kind of experiment: EMSA; estimated from EMSA data; construct not given. The settings on record: tags: fusion construct from E. coli (GST, His or MBP; exact one not specified for this assay); chain copies: 3.

B1: RA1-HSF (14-1) (ssRNA)
RNA: GGGAGAAUUCAACUGCCAUCUAGGCAUCGCGAUACAAAAUUAAGUUGAACGCGAGUUCUCCAUCUAGUACUACAAGCUUCUGGACUCGAU
For the molecule B1, the Kd (as a rule, the constant that tells how readily two partners part at equilibrium) is 20 nM.

Values taken from patent US20040053310, “Exhaustive selection of RNA aptamers against complex targets” (published 2004).
